One substance from article PMC3791854 can be followed below.

The assay concerns the target HIV Env on CEM-Env cells (HIV, strain not stated).

As to “CD4-CD28-CD3ζ chimeric receptor (from UniProt P01730 26-396)”, the IFNγ in the culture of CEM-Env + CD4-dTc was 838 pg/mL, the IL2 in the culture of CEM-Env + CD4-dTc came out at 318 pg/mL and the TNFα in the culture of CEM-Env + CD4-dTc stood at 249 pg/mL.
